# According to paper PMC6929137, “Thrombin Aptamer-Modified Metal–Organic Framework Nanoparticles: Functional Nanostructures for Sensing Thrombin and the Triggered Controlled Release of Anti-Blood Clotting Drugs”:
# B1: thrombin aptamer (2) hybridized to anchor (1) on UiO-68 NMOFs (mixed)
# DNA: GGTTGGTGTGGTTGGTTTT
# ?: AAAACCAACCA
# modifications: strand 2 (anchor): 5'-NH2-(CH2)6, DBCO-modified, clicked to azide-functionalized UiO-68 NMOF
# Assays:
# thrombin = thrombin (UniProt P00734;P00734 328-363;364-622); experiment: strand-displacement release of rhodamine 6G from gated NMOFs (fluorescence); thrombin 0.25-1 uM; 10 mM KCl, 10 mM MgCl2; competes with anchor strand (1); 10 mM HEPES pH 7.4, 20 mM NaCl, 10 mM KCl, 10 mM MgCl2; 30 min; temperature not stated
# [1] = molecular target: vascular endothelial growth factor 165 (VEGF) (human, UniProt P15692-4 27-191); experiment: strand-displacement release of rhodamine 6G and Apixaban from gated NMOFs (fluorescence); 1 uM protein; background release only; 10 mM HEPES pH 7.4, 20 mM NaCl, 10 mM KCl, 10 mM MgCl2; 30 min; temperature not stated; settings: protein: commercial; chain copies: 2; label: none on DNA; read-out is released rhodamine 6G or Apixaban fluorescence; 11 bp duplex, 5' overhang 8 nt on aptamer strand
# Chain of vascular endothelial growth factor 165 (VEGF) (P15692 other isoform, or with tags, fused parts or gaps): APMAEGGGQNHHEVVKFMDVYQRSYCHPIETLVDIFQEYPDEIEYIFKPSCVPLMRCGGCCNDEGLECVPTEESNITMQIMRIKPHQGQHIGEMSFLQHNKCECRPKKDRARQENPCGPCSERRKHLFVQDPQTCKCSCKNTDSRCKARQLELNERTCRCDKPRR
binder,measurement,setting,value
B1,binding result,thrombin,binds
same,binding result,[1],no binding
